Laboratory results from EP0730609B1.

Molecular target: IL4 receptor on the gibbon cell line MLA (gibbon)
Experiment: displacement of 125I-IL4 (83 pM added) from gibbon MLA cells

IC50: 22 pM
Substance: recombinant human IL4 (E. coli, non-glycosylated) (from UniProt P05112 25-153) (ligand)
